Measured values taken from US20040132121A1, “Method of identifying antibacterial compounds” (priority 2000, published 2004).

Columns and labels:
[1] = molecular target: E. coli β fused to the B42 transcriptional activation domain (plasmid pB42ADβ) (Escherichia coli) (UniProt P0A988)
[2] = molecular target: Escherichia coli β subunit of DNA Polymerase III (β protein) (Escherichia coli) (UniProt P0A988)

Sequence of LexA-DinB (307-317) fusion (plasmid pLexADinB (307-317)) (P0A7C2 other isoform, or with tags, fused parts or gaps): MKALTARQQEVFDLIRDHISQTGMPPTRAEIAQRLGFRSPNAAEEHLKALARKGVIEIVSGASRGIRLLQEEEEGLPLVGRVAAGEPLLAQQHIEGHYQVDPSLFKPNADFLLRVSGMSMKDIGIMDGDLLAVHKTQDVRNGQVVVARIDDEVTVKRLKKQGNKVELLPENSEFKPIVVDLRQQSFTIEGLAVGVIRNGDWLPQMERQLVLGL
Sequence of LexA-MutS (802-818) fusion (plasmid pLexAMutS(802-818)) (P0A7C2 other isoform, or with tags, fused parts or gaps): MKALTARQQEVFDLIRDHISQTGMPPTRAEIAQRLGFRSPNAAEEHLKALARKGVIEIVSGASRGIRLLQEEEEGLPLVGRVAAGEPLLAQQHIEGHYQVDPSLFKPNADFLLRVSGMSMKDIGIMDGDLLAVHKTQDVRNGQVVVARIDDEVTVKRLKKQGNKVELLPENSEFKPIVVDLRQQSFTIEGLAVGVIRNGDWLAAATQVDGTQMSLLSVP
Sequence of LexA-PolB (779-783) fusion (plasmid pLexAPolB(779-783)) (P0A7C2 other isoform, or with tags, fused parts or gaps limits assumed): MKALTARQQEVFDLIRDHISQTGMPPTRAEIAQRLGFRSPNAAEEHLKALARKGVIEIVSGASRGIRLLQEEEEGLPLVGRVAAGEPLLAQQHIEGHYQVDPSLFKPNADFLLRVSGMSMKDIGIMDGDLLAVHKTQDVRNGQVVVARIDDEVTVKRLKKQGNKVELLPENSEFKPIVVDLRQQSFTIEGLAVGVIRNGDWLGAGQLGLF

LexA-DinB (307-317) fusion (plasmid pLexADinB (307-317)) (from UniProt P0A7C2 1-202)
β-gal activity Miller units (yeast two-hybrid; interact with β: +) [1]: 75.1 Miller units

LexA-DnaE (542-735) fusion (from UniProt P0A7C2 1-202; P10443 542-735)
β-gal activity Miller units (yeast two-hybrid; interact with β: -) [1]: 1.1 Miller units

LexA-DnaE (542-991) fusion (plasmid pLexADnaE (542-991)) (from UniProt P0A7C2 1-202; P10443 542-991)
β-gal activity Miller units (yeast two-hybrid; interact with β: +) [1]: 60.1 Miller units

LexA-DnaE (736-991) fusion (from UniProt P0A7C2 1-202; P10443 736-991)
β-gal activity Miller units (yeast two-hybrid; interact with β: +) [1]: 135 Miller units

LexA-DnaE (896-919) fusion (plasmid pLexADnaE (896-919)) (from UniProt P0A7C2 1-202; P10443 896-919)
β-gal activity Miller units (yeast two-hybrid; interact with β: -) [1]: 0.1 Miller units

LexA-DnaE (908-931) fusion (plasmid pLexADnaE (908-931)) (from UniProt P0A7C2 1-202; P10443 908-931)
β-gal activity Miller units (yeast two-hybrid; interact with β: +) [1]: 32.3 Miller units

LexA-MutS (802-818) fusion (plasmid pLexAMutS(802-818)) (from UniProt P0A7C2 1-202)
β-gal activity Miller units (yeast two-hybrid; interact with β: +) [1]: 43.8 Miller units

LexA-PolB (779-783) fusion (plasmid pLexAPolB(779-783)) (from UniProt P0A7C2 1-202)
β-gal activity Miller units (yeast two-hybrid; interact with β: +) [1]: 69.6 Miller units

LexA-UmuC (351-365) fusion (plasmid pLexAUmuC(351-365)) (from UniProt P0A7C2 1-202)
β-gal activity Miller units (yeast two-hybrid; interact with β: +) [1]: 94.8 Miller units

pLexA
β-gal activity Miller units (yeast two-hybrid; interact with β: -) [1]: 1.5 Miller units

pep18 Ac-DLF-NH2 (peptide)
IC50 [2]: 135 µM
